Results on 30 molecules are retold here after PMC11417369, “DNA sequence and chromatin differentiate sequence-specific transcription factor binding in the human malaria parasite Plasmodium falciparum”.

Data set [1] has as its target AP2-I D3 (Plasmodium falciparum, UniProt Q8IJW6 910-1027). Briefly: gcPBM; about 25 ug protein; PBS, 1% milk, 0.2 mg/ml BSA, salmon testes DNA, 0.03% Triton X-100. The conditions noted are these: tags: N-terminal GST (pGEX-4T-1), kept; label: surface-attached array probe.
Data set [2] has as its target T1, SIP2 D1 (Plasmodium falciparum, UniProt C6KSN9 177-235).
T1 sequence: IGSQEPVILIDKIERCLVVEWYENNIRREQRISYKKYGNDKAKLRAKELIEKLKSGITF
Described as above. The conditions noted are these: tags: N-terminal GST (pGEX-4T-1), kept; label: surface-attached array probe.

B1: GTGCAC_site9729 (dsDNA)
DNA 1: GAACAAATTAAATAGGTGCATTAACATGTTCTATTT
DNA 2: AAATAGAACATGTTAATGCACCTATTTAATTTGTTC
As to B1, the binding signal in data set [1] was 12.2 ln median PBM intensity, better of two orientations.

B2: GTGCAC_site10187 (dsDNA)
DNA 1: TTAAAAAATAACAAGGTGCAAATAGGTTTATAAAAT
DNA 2: ATTTTATAAACCTATTTGCACCTTGTTATTTTTTAA
On to B2, for which the binding signal in data set [2] was 10.3 ln median PBM intensity, better of two orientations.

B3: GTGCAC_site10274 (dsDNA)
DNA 1: CAACCTTTTTTGTTGGTGCATAATTTTTTTTTCTTT
DNA 2: AAAGAAAAAAAAATTATGCACCAACAAAAAAGGTTG
In the case of B3, the binding signal in data set [2] was 10.2 ln median PBM intensity, better of two orientations.

B4: GTGCAC_site10158 (dsDNA)
DNA 1: AGGTTTTCTTAAATAGTGCATTATAACAAAAATAAA
DNA 2: TTTATTTTTGTTATAATGCACTATTTAAGAAAACCT
In the case of B4, the binding signal in data set [1] is 12.1 ln median PBM intensity, better of two orientations.

B5: GTGCAC_site10377 (dsDNA)
DNA 1: GAATAAATATTAAATGTGCACTTGAATAGATGTAAA
DNA 2: TTTACATCTATTCAAGTGCACATTTAATATTTATTC
Consider B5, for which the binding signal in data set [2] is 10.3 ln median PBM intensity, better of two orientations.

B6: GTGCAC_site10713 (dsDNA)
DNA 1: TTTTTTTTTCAAGAGGTGCGTGTATTTTAACAAAAA
DNA 2: TTTTTGTTAAAATACACGCACCTCTTGAAAAAAAAA
Turning to B6, the binding signal in data set [2] was 10.3 ln median PBM intensity, better of two orientations.

B7: GTGCAC_site10254 (dsDNA)
DNA 1: GTATATAAATAAATAGTGCATTATTAAAAATAATGT
DNA 2: ACATTATTTTTAATAATGCACTATTTATTTATATAC
Consider B7, for which the binding signal in data set [1] is 12.2 ln median PBM intensity, better of two orientations.

B8: GTGCAC_site9836 (dsDNA)
DNA 1: ATTATATACATTTTAGTGCATTACATAATAATATAA
DNA 2: TTATATTATTATGTAATGCACTAAAATGTATATAAT
For B8, the binding signal in data set [1] is 12.1 ln median PBM intensity, better of two orientations.

B9: GTGCAC_site9711 (dsDNA)
DNA 1: TTAAATTATTAGAGAGTGCATTATATATATTATACA
DNA 2: TGTATAATATATATAATGCACTCTCTAATAATTTAA
Take B9: the binding signal in data set [1] was 12.1 ln median PBM intensity, better of two orientations.

B10: GTGCAC_site9883 (dsDNA)
DNA 1: ATTAAATGCAGTTCGGTGCATTAAGGTTATGATGAA
DNA 2: TTCATCATAACCTTAATGCACCGAACTGCATTTAAT
For B10, in data set [1], the binding signal is 12.1 ln median PBM intensity, better of two orientations.

B11: GTGCAC_site9418 (dsDNA)
DNA 1: ATGATATATTTAATAGTGCACTAATTAAAATTATTA
DNA 2: TAATAATTTTAATTAGTGCACTATTAAATATATCAT
Regarding B11, the binding signal in data set [1] is 12.4 ln median PBM intensity, better of two orientations.

B12: GTGCAC_site9835 (dsDNA)
DNA 1: ATTTAAAAGTTGGTAGTGCATTAAAAATAACAAAAA
DNA 2: TTTTTGTTATTTTTAATGCACTACCAACTTTTAAAT
Regarding B12, the binding signal in data set [1] is 12.2 ln median PBM intensity, better of two orientations.

B13: GTGCAC_site9914 (dsDNA)
DNA 1: TGGCTTTCCCTGCCGGTGCATTAACATTTTTTACAT
DNA 2: ATGTAAAAAATGTTAATGCACCGGCAGGGAAAGCCA
In the case of B13, the binding signal in data set [1] was 12.3 ln median PBM intensity, better of two orientations.

B14: GTGCAC_site10014 (dsDNA)
DNA 1: TTTACCTCTTCAATGGTGCAATAACTCAAAAATTTG
DNA 2: CAAATTTTTGAGTTATTGCACCATTGAAGAGGTAAA
On to B14, for which the binding signal in data set [1] is 12.3 ln median PBM intensity, better of two orientations.

B15: GTGCAC_site9419 (dsDNA)
DNA 1: ATATAAAGTATGTTAGTGCACTTTTTTTTTTTTTTT
DNA 2: AAAAAAAAAAAAAAAGTGCACTAACATACTTTATAT
Regarding B15, the binding signal in data set [1] was 12.1 ln median PBM intensity, better of two orientations.

B16: GTGCAC_site10298 (dsDNA)
DNA 1: ATTTATTTCTTGTTAGTGCACTTTCTTTGGTAAAAT
DNA 2: ATTTTACCAAAGAAAGTGCACTAACAAGAAATAAAT
As to B16, the binding signal in data set [1] is 12.1 ln median PBM intensity, better of two orientations.

B17: GTGCAC_site10569 (dsDNA)
DNA 1: TACTATTATAAATATGTGCACTTCAATAATATACTA
DNA 2: TAGTATATTATTGAAGTGCACATATTTATAATAGTA
On to B17, for which the binding signal in data set [2] was 10.4 ln median PBM intensity, better of two orientations.

B18: GTGCAC_site10285 (dsDNA)
DNA 1: CATAAATAAGCTTTAGTGCATTATATTTAAATTTTT
DNA 2: AAAAATTTAAATATAATGCACTAAAGCTTATTTATG
For B18, the binding signal in data set [1] was 12.2 ln median PBM intensity, better of two orientations.

B19: GTGCAC_site9437 (dsDNA)
DNA 1: CATTTTCATTTTAAGGTGCATTAATATTTATTTTAA
DNA 2: TTAAAATAAATATTAATGCACCTTAAAATGAAAATG
Turning to B19, the binding signal in data set [1] is 12.1 ln median PBM intensity, better of two orientations.

B20: GTGCAC_site10275 (dsDNA)
DNA 1: AATATTCATATGCAGGTGCATTAATTTTTATTAATT
DNA 2: AATTAATAAAAATTAATGCACCTGCATATGAATATT
Take B20: the binding signal in data set [1] is 12.2 ln median PBM intensity, better of two orientations.

B21: GTGCAC_site10002 (dsDNA)
DNA 1: TATAAGGCAATAATAGTGCACTAAGATATATAATGA
DNA 2: TCATTATATATCTTAGTGCACTATTATTGCCTTATA
In the case of B21, in data set [1], the binding signal was 12.3 ln median PBM intensity, better of two orientations.

B22: GTGCAC_site9493 (dsDNA)
DNA 1: TAAAATTATTAATGAGTGCATTATAAAATCTATATA
DNA 2: TATATAGATTTTATAATGCACTCATTAATAATTTTA
Regarding B22, in data set [1], the binding signal is 12.1 ln median PBM intensity, better of two orientations.

B23: GTGCAC_site10253 (dsDNA)
DNA 1: TTTTTTTTTTTGATGGTGCAATATATTAAATAGAAA
DNA 2: TTTCTATTTAATATATTGCACCATCAAAAAAAAAAA
As to B23, the binding signal in data set [1] is 12.2 ln median PBM intensity, better of two orientations.

B24: GTGCAC_site9795 (dsDNA)
DNA 1: ATCATATTTATGTTGGTGCATTATGCATGGATTTTA
DNA 2: TAAAATCCATGCATAATGCACCAACATAAATATGAT
Consider B24, for which the binding signal in data set [1] is 12.2 ln median PBM intensity, better of two orientations.

B25: GTGCAC_site9571 (dsDNA)
DNA 1: ATCATATTTATATTGGTGCATTATGCATGAAATTTA
DNA 2: TAAATTTCATGCATAATGCACCAATATAAATATGAT
B25: the binding signal in data set [1] was 12.1 ln median PBM intensity, better of two orientations.

B26: GTGCAC_site10388 (dsDNA)
DNA 1: ATTATATTTATGTTGGTGCATTATACATGAAATTTA
DNA 2: TAAATTTCATGTATAATGCACCAACATAAATATAAT
As for B26, the binding signal in data set [2] is 10.2 ln median PBM intensity, better of two orientations.

B27: GTGCAC_site9557 (dsDNA)
DNA 1: TTTTTATGGACTATGGTGCATTATATATAAATGAAA
DNA 2: TTTCATTTATATATAATGCACCATAGTCCATAAAAA
With B27, the binding signal in data set [1] is 12.3 ln median PBM intensity, better of two orientations.

B28: GTGCAC_site9511 (dsDNA)
DNA 1: TTTATATTTATGTAGGTGCATTTGTTTACAACATAT
DNA 2: ATATGTTGTAAACAAATGCACCTACATAAATATAAA
Consider B28, for which, in data set [2], the binding signal was 10.3 ln median PBM intensity, better of two orientations.

B29: GTGCAC_site9879 (dsDNA)
DNA 1: TTTTTATTTTTAGTAGTGCATTAATCATATGGTCAT
DNA 2: ATGACCATATGATTAATGCACTACTAAAAATAAAAA
B29: the binding signal in data set [1] is 12.1 ln median PBM intensity, better of two orientations.

B30: GTGCAC_site10146 (dsDNA)
DNA 1: GAGGTACATTAATTAGTGCATTAAAATTTTTATCCT
DNA 2: AGGATAAAAATTTTAATGCACTAATTAATGTACCTC
For the molecule B30, the binding signal in data set [1] is 12.2 ln median PBM intensity, better of two orientations.
